{"source": "patent US20110124565", "system": "FVIII L99 (B domain deleted FVIII with R372A and Val374 replaced by a 99 amino acid Gly/Ser linker)"}
{"substance": "human activated Protein C", "values": [{"measurement": "remaining FVIII activity (FXa generation test) after addition of human APC with or without protein S", "result": "FVIII L99 could be inactivated by human APC with or without Protein S"}]}
